# Measured values taken from patent US20220332804A1 (CSL INNOVATION, published 2022).
# Where a chain is given by its changes, count along the chain named.
# T1: human C2 K244A (human, UniProt P06681 21-752)
# T1 sequence: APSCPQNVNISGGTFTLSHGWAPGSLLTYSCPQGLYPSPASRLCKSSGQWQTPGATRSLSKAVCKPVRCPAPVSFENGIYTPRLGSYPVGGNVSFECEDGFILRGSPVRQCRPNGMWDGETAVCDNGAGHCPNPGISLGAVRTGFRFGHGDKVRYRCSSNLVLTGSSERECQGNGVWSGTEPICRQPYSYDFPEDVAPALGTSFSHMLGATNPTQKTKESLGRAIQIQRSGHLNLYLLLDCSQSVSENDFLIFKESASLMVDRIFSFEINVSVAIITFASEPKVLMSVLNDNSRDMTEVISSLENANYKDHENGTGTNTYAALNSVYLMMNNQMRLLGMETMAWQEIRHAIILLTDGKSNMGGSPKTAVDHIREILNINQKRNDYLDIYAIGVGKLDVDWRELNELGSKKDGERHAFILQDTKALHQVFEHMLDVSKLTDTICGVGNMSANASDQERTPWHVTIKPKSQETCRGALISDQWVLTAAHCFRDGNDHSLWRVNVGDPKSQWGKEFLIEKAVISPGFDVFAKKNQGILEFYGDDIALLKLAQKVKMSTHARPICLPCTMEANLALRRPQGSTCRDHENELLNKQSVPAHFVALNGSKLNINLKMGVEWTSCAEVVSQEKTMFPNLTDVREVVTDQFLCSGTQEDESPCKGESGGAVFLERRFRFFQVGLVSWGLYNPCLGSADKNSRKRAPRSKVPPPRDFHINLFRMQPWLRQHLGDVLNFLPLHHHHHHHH
# T2: human C2 Q489A (human, UniProt P06681 21-752)
# T2 sequence: T1 sequence with A224K, Q469A
# T3: human C2 S713A (human, UniProt P06681 21-752)
# T3 sequence: T1 sequence with A224K, S693A
# T4: human C2 P650A (human, UniProt P06681 21-752)
# T4 sequence: T1 sequence with A224K, P630A
# B1: RF16-226 (antibody, human IgG4 S228P, lambda)
# heavy: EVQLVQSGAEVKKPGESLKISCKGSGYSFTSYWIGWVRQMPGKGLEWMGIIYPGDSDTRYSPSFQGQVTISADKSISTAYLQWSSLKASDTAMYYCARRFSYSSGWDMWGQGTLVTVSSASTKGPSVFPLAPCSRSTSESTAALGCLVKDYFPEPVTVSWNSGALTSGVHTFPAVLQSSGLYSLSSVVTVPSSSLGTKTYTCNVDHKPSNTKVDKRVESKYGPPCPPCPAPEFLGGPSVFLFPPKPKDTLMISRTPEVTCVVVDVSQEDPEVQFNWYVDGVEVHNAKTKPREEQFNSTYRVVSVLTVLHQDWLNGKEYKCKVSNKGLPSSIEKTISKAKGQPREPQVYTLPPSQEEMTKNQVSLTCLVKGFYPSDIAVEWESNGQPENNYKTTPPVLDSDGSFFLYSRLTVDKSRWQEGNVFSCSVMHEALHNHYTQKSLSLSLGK
# light: SYELTQPPSVSVSPGQTARITCSGDALTSKYVAWYQQKSGLAPLLVIYEDTRRPSGIPAKFSGSSSGSVATLTISGAHGDDEADYYCYSTDASGHQRVFGGGTKLTVLSQPKAAPSVTLFPPSSEELQANKATLVCLISDFYPGAVTVAWKADGSPVKAGVETTKPSKQSNNKYAASSYLSLTPEQWKSHRSYSCQVTHEGSTVEKTVAPTECS
# notes: pH-dependent anti-C2 antibody from a phage display library; also called WT
# Key:
# Assay in all cases: SPR, KD relative to WT C2;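 note: biacore SPR at 37 °C, anti-C2 mAbs captured via immobilised goat anti-human IgG, C2 alanine or serine surface mutants as analytes, 1:1 model fitted, double-referenced sensograms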
# human C2 K244A = molecular target: T1, human C2 K244A
# human C2 Q489A = molecular target: T2, human C2 Q489A
# human C2 S713A = molecular target: T3, human C2 S713A
# human C2 P650A = molecular target: T4, human C2 P650A
binder,measurement,setting,value
B1,Fold diff,human C2 K244A,2 fold
same,Fold diff,human C2 Q489A,10 fold
same,Fold diff,human C2 S713A,2 fold
same,Fold diff,human C2 P650A,2 fold
